{
  "source": "patent US10662230B2",
  "about": "“Cyclic RGD cell-binding motif and uses thereof” (Spiber Technologies AB, priority 2015, dated 2020)",
  "type_in_all_cases": "cell-based",
  "key": {"[1]": {"system": "Normal human epidermal keratinocytes (KC)", "assay": "Formation of focal adhesions (F-actin/vinculin staining), keratinocytes", "experimental": "Cells were harvested at passage 3-8, seeded at 3500/cm^2 and allowed to adhere onto films for 20 min, 1 or 3 hours in chamber slides. After gentle washing, cells were fixed with 4% paraformaldehyde, permeabilized with 0.1% Triton X-100 in PBS, and blocked with 1% bovine serum albumin (BSA, AppliChem) in PBS.\nPrimary antibody were used at the following concentrations in 1% BSA: mouse anti human vinculin (Sigma V9131) at 9.5 μg/ml, mouse-anti human beta1-integrin (activated conformation, clone HUTS-4) at 3.3 μg/mL, or mouse-anti human alpha5-integrin (ligand bound conformation, clone SNAKA-51) at 2.5 μg/mL, both Millipore.\nSecondary antibody was AlexaFlour488 goat anti mouse IgG (H+L), cross adsorbed (Invitrogen), used at 1:500. Phalloidin-AlexaFluor594 (Life Technologies) were used at 1:40 to detect filamentous actin. DAPI was used for nuclear staining. Slides were mounted in Fluorescence mounting medium (Dako, Copenhagen).\nFor microscopic analysis of cell adhesion (formation of focal adhesions and stress fibers), a confocal microscope was used (Carl Zeiss LSM 710) at 10× and 63× magnification.\nQuality of focal adhesions were graded from 1-4 regarding presence of small and dim focal adhesion (=1p), small and distinct focal adhesions (=2p), abundant focal adhesions (=3p) and large and bright focal adhesions (=4p), and multiplied with the portion of positive cells expressing this specific type of focal adhesions (0-4, where 0≈none of, 1≈one fourth of, 2≈half of, 3≈three fourths of, and 4≈all of the focal adhesion-positive cells.)\nFormation of focal adhesions within the cells was analyzed after 3 h by staining for F-actin in combination with vinculin, which is one of the major components of the focal adhesion complex. Co-staining of F-actin and vinculin is thus a sign of integrin-involved, well established binding of cells to the underlying substrate. Focal adhesions appear as yellow-greenish elongations of the F-actin filaments, often situated close to the cell membrane.\nThe results from the analysis of formation and characterization of focal adhesions in KC after adherence for 3 h onto films of WT-silk (SEQ ID NO: 2) or silk functionalized with FNCC (SEQ ID NO: 13), FNVS (SEQ ID NO: 15), FNSS (SEQ ID NO: 14) or RGD (SEQ ID NO: 16) is presented in FIG. 7. Slides were scanned with a confocal microscope at 10× for overview (FIG. 7a) and at 63× for details (FIG. 7b). Two types of grading of the focal adhesions in the cells were performed."}, "[2]": {"system": "Normal human epidermal keratinocytes (KC)", "assay": "Cell spreading by F-actin staining, keratinocytes", "conditions": "3 h adhesion", "experimental": "Cells were harvested at passage 3-8, seeded at 3500/cm^2 and allowed to adhere onto films for 20 min, 1 or 3 hours in chamber slides. After gentle washing, cells were fixed with 4% paraformaldehyde, permeabilized with 0.1% Triton X-100 in PBS, and blocked with 1% bovine serum albumin (BSA, AppliChem) in PBS. Secondary antibody was AlexaFlour488 goat anti mouse IgG (H+L), cross adsorbed (Invitrogen), used at 1:500. Phalloidin-AlexaFluor594 (Life Technologies) were used at 1:40 to detect filamentous actin. DAPI was used for nuclear staining. Slides were mounted in Fluorescence mounting medium (Dako, Copenhagen). The stained cells were analyzed using an inverted microscope (Nikon Eclipse Ti) at 4× and 10× magnification. Excitation at 563/45 nm and detection at 625/50 nm was used for red fluorescence, whereas excitation with 387/11 nm and detection at 447/60 nm was used to monitor blue fluorescence. By staining for F-actin, cell spreading and formation of stress fibers in KC after 3 h adhesion were investigated (FIG. 6)."}, "[3]": {"system": "Human Dermal fibroblasts", "assay": "Cell culture on FNCC silk coatings", "conditions": "coating 0.1 mg/ml", "experimental": "(§1) After purification, solutions of FNCC-silk protein (SEQ ID NO: 13) were used to coat cell culture plates (Sarstedt, hydrophobic plates for suspension cells). Briefly, the protein solutions were diluted to 0.1 mg/ml in Tris buffer, and allowed to incubate at room temperature for 30 minutes before removal and wash.\n(§2) Cells were harvested using trypsination (TrpLE) and seeded onto the FNcc-silk coatings at suitable cell density (3-10 000 cells/cm2). Cell growth was monitored with Alamar Blue cell viability assay (Molecular Probes) regularly (every 2-3 day). At the end point, after 7-14 days, Live/dead staining was performed."}, "[4]": {"system": "HaCaT Keratinocytes", "assay": "Cell culture on FNCC silk coatings", "conditions": "coating 0.1 mg/ml", "experimental": "as §1, §2"}, "[5]": {"system": "Human Mesenchymal stem cells", "assay": "Cell culture on FNCC silk coatings", "conditions": "coating 0.1 mg/ml", "experimental": "as §1, §2"}, "[6]": {"system": "Human Dermal Microvascular Endothelial Cells", "assay": "Cell culture on FNCC silk coatings", "conditions": "coating 0.1 mg/ml", "experimental": "as §1, §2"}, "[7]": {"system": "Mouse Mesenchymal stem cells", "assay": "Cell culture on FNCC silk coatings", "conditions": "coating 0.1 mg/ml", "experimental": "as §1, §2"}, "[8]": {"system": "MIN6-m9 pancreatic cell line", "assay": "Cell culture on FNCC silk coatings", "conditions": "coating 0.1 mg/ml", "experimental": "as §1, §2"}, "[9]": {"system": "Human Skeletal Muscle Satellite Cells", "assay": "Cell culture on FNCC silk coatings", "conditions": "coating 0.1 mg/ml", "experimental": "as §1, §2"}},
  "note": "“Also recorded” adds a separate entry of the source.",
  "data": [
    {"molecule": "FNCC-silk: recombinant spider silk protein 4RepCT with N-terminal cysteine-looped RGD motif CTGRGDSPAC (SEQ ID NO: 10) (protein, cyclic disulfide loop; Fusion protein; DISULFID (5)..(14)) GPNSCTGRGDSPACGSASGQGGYGGLGQGGYGQGAGSSAAAAAAAAAAAAGGQGGQGQGGYGQGSGGSAAAAAAAAAAAAAAAGRGQGGYGQGSGGNAAAAAAAAAAAAAAAGQGGQGGYGRQSQGAGSAAAAAAAAAAAAAAGSGQGGYGGQGQGGYGQSSASASAAASAASTVANSVSRLSSPSAVSRVSSAVSSLVSNGQVNMAALPNIISNISSSVSASAPGASGCEVIVQALLEVITALVQIVSSSSVGYINPSAVNQITNVVANAMAQVMG", "values": [
      {"measurement": "time after seeding at which prominent focal adhesions appeared", "setting": "[1]", "value": 20, "unit": "min"},
      {"measurement": "percentage of cells exhibiting focal adhesions", "setting": "[1]; 3 h adherence, 10× magnification", "value": "significant increase in percentage of cells expressing focal adhesions on FNCC-silk, compared to RGD and WT"},
      {"measurement": "quality (grading) of focal adhesions", "setting": "[1]; 3 h adherence, 63× magnification", "value": "tendency of more prominent focal adhesions in cells attached to FNCC-silk compared to the other silk types; also recorded: almost only prominent focal adhesions"},
      {"measurement": "cell morphology (F-actin)", "setting": "[2]", "value": "most cells had a nice spread-out morphology with distinct actin filaments"},
      {"measurement": "spreading of KC (total cell area in 4× micrographs)", "setting": "[2]; seeding 3 500/cm^2", "value": "significantly increased compared to FNSS-silk"},
      {"measurement": "spreading of KC (total cell area in 4× micrographs)", "setting": "[2]; seeding 3 500/cm^2, listed as FNCC", "value": "significantly increased spreading of KC compared to RGD-film (p<0.05) and WT-film (p<0.001)"},
      {"measurement": "growth profile (Alamar Blue)", "setting": "[3]; 7-14 days", "value": "positive growth profile"},
      {"measurement": "viable cells at the end point (Live/dead staining)", "setting": "[3]; after 7-14 days", "value": "> 80", "unit": "%"},
      {"measurement": "growth profile (Alamar Blue)", "setting": "[4]; 7-14 days", "value": "positive growth profile"},
      {"measurement": "viable cells at the end point (Live/dead staining)", "setting": "[4]; after 7-14 days", "value": "> 80", "unit": "%"},
      {"measurement": "growth profile (Alamar Blue)", "setting": "[5]; 7-14 days", "value": "positive growth profile"},
      {"measurement": "viable cells at the end point (Live/dead staining)", "setting": "[5]; after 7-14 days", "value": "> 80", "unit": "%"},
      {"measurement": "growth profile (Alamar Blue)", "setting": "[6]; 7-14 days", "value": "positive growth profile"},
      {"measurement": "viable cells at the end point (Live/dead staining)", "setting": "[6]; after 7-14 days", "value": "> 80", "unit": "%"},
      {"measurement": "growth profile (Alamar Blue)", "setting": "[7]; 7-14 days", "value": "positive growth profile"},
      {"measurement": "viable cells at the end point (Live/dead staining)", "setting": "[7]; after 7-14 days", "value": "> 80", "unit": "%"},
      {"measurement": "growth profile (Alamar Blue)", "setting": "[8]; 7-14 days", "value": "positive growth profile"},
      {"measurement": "viable cells at the end point (Live/dead staining)", "setting": "[8]; after 7-14 days", "value": "> 80", "unit": "%"},
      {"measurement": "growth profile (Alamar Blue)", "setting": "[9]; 7-14 days", "value": "positive growth profile"},
      {"measurement": "viable cells at the end point (Live/dead staining)", "setting": "[9]; after 7-14 days", "value": "> 80", "unit": "%"}
    ]}
  ]
}
